B1: Alpha-lactalbumin, P00712 (parent)
chain: MMSFVSLLLVGILFHATQAEQLTKCEVFQKLKDLKDYGGVSLPEWVCTAFHTSGYDTQAIVQNNDSTEYGLFQINNKIWCKDDQNPHSRNICNISCDKFLDDDLTDDIVCAKKILDKVGINYWLAHKALCSEKLDQWLCEKL

This series covers variants of B1. Particulars: Capra hircus; pH 7; 25 °C; GdnHCl; CD; sodium cacodylate 50 mM; NaCl 50 mM; reversible: yes; structure 1HFY; whole UniProt chain shown.

Turning to MMSFVSLLLVGILFHATQAEQLTKCEVFQKLKDLKDYGGVSLPEWVCTIFHISGYDTQAIVQNNDSTEYGLFQINNKIWCKDDQNPHSRNICNISCDKFLDDDLTDDIVCAKKILDKVGINYWLAHKALCSEKLDQWLCEKL [A49I T52I], the “ddG of mutation (higher = less stable)” value is -0.4 kcal/mol, the denaturant m value came out at 2.1 kcal/mol/M, the “denaturant midpoint (higher = more stable)” value (“denaturant midpoint” for short) was 2.85 M and the unfolding free energy was 6.1 kcal/mol.

Consider MMSFVSLLLVGILFHATQAEQLTKCEVFQKLKDLKDYGGVSLPEWVCIAFHTSGYDTQAIVQNNDSTEYGLFQINNKIWCKDDQNPHSRNICNISCDKFLDDDLTDDIVCAKKILDKVGINYWLAHKALCSEKLDQWLCEKL [T48I], for which the “ddG of mutation (higher = less stable)” value was -4.4 kcal/mol, the denaturant m value came to 2.6 kcal/mol/M, the “denaturant midpoint” value was 3.93 M and the unfolding free energy turned out to be 10.1 kcal/mol.

Regarding MMSFVSLLLVGILFHATQAEQLTKCEVFQKLKDLKDYGGVSLPEWVCTAFHISGYDTQAIVQNNDSTEYGLFQINNKIWCKDDQNPHSRNICNISCDKFLDDDLTDDIVCAKKILDKVGINYWLAHKALCSEKLDQWLCEKL [T52I], the “ddG of mutation (higher = less stable)” value is 1.1 kcal/mol, the denaturant m value was 2 kcal/mol/M, the “denaturant midpoint” value came to 2.31 M and the unfolding free energy came to 4.6 kcal/mol.

With MMSFVSLLLVGILFHATQAEQLTKCEVFQKLKDLKDYGGVSLPEWVCTTFHTSGYDTQAIVQNNDSTEYGLFQINNKIWCKDDQNPHSRNICNISCDKFLDDDLTDDIVCAKKILDKVGINYWLAHKALCSEKLDQWLCEKL [A49T], the “ddG of mutation (higher = less stable)” value is -1.7 kcal/mol, the denaturant m value turned out to be 3.1 kcal/mol/M, the “denaturant midpoint” value came out at 2.44 M and the unfolding free energy was found to be 7.4 kcal/mol.

With MMSFVSLLLVGILFHATQAEQLTKCEVFQKLKDLKDYGGVSLPEWVCTIFHTSGYDTQAIVQNNDSTEYGLFQINNKIWCKDDQNPHSRNICNISCDKFLDDDLTDDIVCAKKILDKVGINYWLAHKALCSEKLDQWLCEKL [A49I], the “ddG of mutation (higher = less stable)” value is -2.4 kcal/mol, the denaturant m value came to 2.7 kcal/mol/M, the “denaturant midpoint” value was determined as 3.01 M and the unfolding free energy is 8.1 kcal/mol.

The record behind these values is FireProtDB.
